This note sets out measurements from the supplement of paper PMC10567573.

To fix the notation:
B1: SCARA5 (parent)
chain: VTEDLRLKDWEHSIALRNISLAKG
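Also: lentivirally expressed fusions sorted by FACS into six bins by GFP to DsRed ratio, PSI derived from sequencing read proportions per bin multiplied by bin number.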

In this data set the parent is B1. The experiment in a line: protein stability index of a GFP-peptide fusion (GPS, HEK-293T) (PSI 1-6); higher = more stable. The conditions noted are these: c terminus: a fixed tail appended.
With VTEDLRLKDWEHSIALRNISLAHG [K23H], the protein stability index amounted to 3.29.
On to VTEDLRLKDWEHSIALRNISLASG [K23S], for which the protein stability index is 3.3.
As for VTEDLRLKDWEHSIALRNISLAIG [K23I], the protein stability index was determined as 2.36.
As to VTEDLRLKDWEHSIALRNISLACG [K23C], the protein stability index turned out to be 3.1.
Take VTEDLRLKDWEHSIALRNISLARG [K23R]: the protein stability index worked out at 2.96.
The result for VTEDLRLKDWEHSIALRNISLATG [K23T] reads 2.85.
Regarding VTEDLRLKDWEHSIALRNISLALG [K23L], the protein stability index was 2.95.
For VTEDLRLKDWEHSIALRNISLADG [K23D] the value was 3.84.
With VTEDLRLKDWEHSIALRNISLAPG [K23P], the protein stability index came to 3.44.
For VTEDLRLKDWEHSIALRNISLAMG [K23M] the value was 2.16; for VTEDLRLKDWEHSIALRNISLIKG [A22I], 3.37.
As to VTEDLRLKDWEHSIALRNISLKKG [A22K], the protein stability index is 3.95.
Turning to VTEDLRLKDWEHSIALRNISLWKG [A22W], the protein stability index worked out at 2.16.
With VTEDLRLKDWEHSIALRNISLFKG [A22F], the protein stability index worked out at 3.06.
The result for VTEDLRLKDWEHSIALRNISLLKG [A22L] reads 2.67; that for VTEDLRLKDWEHSIALRNISLYKG [A22Y], 2.23.
Consider VTEDLRLKDWEHSIALRNISLCKG [A22C], for which the protein stability index amounted to 3.37.
On to VTEDLRLKDWEHSIALRNISLQKG [A22Q], for which the protein stability index stood at 3.51.
The result for VTEDLRLKDWEHSIALRNISLHKG [A22H] reads 3.9.
For VTEDLRLKDWEHSIALRNISLVKG [A22V] the value was 3.23; for VTEDLRLKDWEHSIALRNISLSKG [A22S], 3.24.
Take VTEDLRLKDWEHSIALRNISLEKG [A22E]: the protein stability index stood at 3.69.
For VTEDLRLKDWEHSIALRNISLDKG [A22D] the value was 3.73; for VTEDLRLKDWEHSIALRNISLMKG [A22M], 2.82; for VTEDLRLKDWEHSIALRNISLTKG [A22T], 2.97.
VTEDLRLKDWEHSIALRNISLNKG [A22N]: the protein stability index worked out at 3.61.
For VTEDLRLKDWEHSIALRNISLGKG [A22G] the value was 3.14; for VTEDLRLKDWEHSIALRNISLPKG [A22P], 3.77; for VTEDLRLKDWEHSIALRNISLRKG [A22R], 3.33.
The result for VTEDLRLKDWEHSIALRTISLAKG [N18T] reads 3.58.
Turning to VTEDLRLKDWEHSIALRPISLAKG [N18P], the protein stability index turned out to be 2.81.
For VTEDLRLKDWEHSIALRVISLAKG [N18V] the value was 1.76; for VTEDLRLKDWEHSIALRSISLAKG [N18S], 3.37.
As for VTEDLRLKDWEHSIALRYISLAKG [N18Y], the protein stability index amounted to 1.95.
As to VTEDLRLKDWEHSIALRQISLAKG [N18Q], the protein stability index was found to be 2.93.
The result for VTEDLRLKDWEHSIALRRISLAKG [N18R] reads 3.15.
The result for VTEDLRLKDWEHSIALRWISLAKG [N18W] reads 2.47.
The result for VTEDLRLKDWEHSIALRNPSLAKG [I19P] reads 3.9; that for VTEDLRLKDWEHSIALRNYSLAKG [I19Y], 3.22.
Regarding VTEDLRLKDWEHSIALRNDSLAKG [I19D], the protein stability index worked out at 4.54.
In the case of VTEDLRLKDWEHSIALRNHSLAKG [I19H], the protein stability index came to 3.69.
Consider VTEDLRLKDWEHSIALRNTSLAKG [I19T], for which the protein stability index was determined as 3.93.
Take VTEDLRLKDWEHSIALRNWSLAKG [I19W]: the protein stability index worked out at 2.62.
On to VTEDLRLKDWEHSIALRNRSLAKG [I19R], for which the protein stability index is 4.25.
Consider VTEDLRLKDWEHSIALRNVSLAKG [I19V], for which the protein stability index was 3.74.
The result for VTEDLRLKDWEHSIALRNCSLAKG [I19C] reads 4.27.
For VTEDLRLKDWEHSIALRNKSLAKG [I19K] the value was 4.39; for VTEDLRLKDWEHSIALRNSSLAKG [I19S], 3.98; for VTEDLRLKDWEHSIALRNFSLAKG [I19F], 3.
The result for VTEDLRLKDWEHSIALRNLSLAKG [I19L] reads 3.05.
As to VTEDLRLKDWEHSIALRNMSLAKG [I19M], the protein stability index amounted to 3.3.
The result for VTEDLRLKDWEHSIALRNNSLAKG [I19N] reads 3.77; that for VTEDLRLKDWEHSIALRNASLAKG [I19A], 3.71; that for VTEDLRLKDWEHSIALRNESLAKG [I19E], 4.44.
For VTEDLRLKDWEHSIALRNQSLAKG [I19Q] the value was 4.44; for VTEDLRLKDWEHSIALRNGSLAKG [I19G], 3.99; for VTEDLRLKDWEHSIALRNISLAKY [G24Y], 3.14.
The result for VTEDLRLKDWEHSIALRNISLAKV [G24V] reads 2.26; that for VTEDLRLKDWEHSIALRNISLAKA [G24A], 3.4.
On to VTEDLRLKDWEHSIALRNISLAKL [G24L], for which the protein stability index was determined as 2.04.
Take VTEDLRLKDWEHSIALRNISLAKC [G24C]: the protein stability index came out at 2.83.
The result for VTEDLRLKDWEHSIALRNISLAKH [G24H] reads 3.3; that for VTEDLRLKDWEHSIALRNISLAKW [G24W], 2.39; that for VTEDLRLKDWEHSIALRNISLAKR [G24R], 3.46.
For VTEDLRLKDWEHSIALRNISLAKN [G24N], the protein stability index was 3.06.
As for VTEDLRLKDWEHSIALRNISLAKK [G24K], the protein stability index was 3.65.
For VTEDLRLKDWEHSIALRNISLAKI [G24I] the value was 2.42.
For VTEDLRLKDWEHSIALRNISLAKQ [G24Q] the value was 3.49; for VTEDLRLKDWEHSIALRNISLAKE [G24E], 4.13.
The result for VTEDLRLKDWEHSIALRNISLAKS [G24S] reads 3.31; that for VTEDLRLKDWEHSIALRNISLAKM [G24M], 2.95; that for VTEDLRLKDWEHSIALRNISLAKF [G24F], 2.49.
VTEDLRLKDWEHSIALRNISLAKP [G24P]: the protein stability index was found to be 3.09.
For VTEDLRLKDWEHSIALRNISLAKD [G24D] the value was 4.08.
For VTEDLRLKDWEHSIALRNISLAKT [G24T] the value was 3.43; for VTEDLRLKDWEHSIALRNISRAKG [L21R], 3.56; for VTEDLRLKDWEHSIALRNISTAKG [L21T], 4.23.
As for VTEDLRLKDWEHSIALRNISPAKG [L21P], the protein stability index amounted to 4.11.
Consider VTEDLRLKDWEHSIALRNISDAKG [L21D], for which the protein stability index is 4.8.
Regarding VTEDLRLKDWEHSIALRNISMAKG [L21M], the protein stability index was determined as 3.68.
For VTEDLRLKDWEHSIALRNISGAKG [L21G] the value was 4.03; for VTEDLRLKDWEHSIALRNISVAKG [L21V], 3.5.
Turning to VTEDLRLKDWEHSIALRNISHAKG [L21H], the protein stability index was 4.07.
Take VTEDLRLKDWEHSIALRNISNAKG [L21N]: the protein stability index is 4.08.
The result for VTEDLRLKDWEHSIALRNISCAKG [L21C] reads 3.84; that for VTEDLRLKDWEHSIALRNISSAKG [L21S], 3.85.
Turning to VTEDLRLKDWEHSIALRNISAAKG [L21A], the protein stability index turned out to be 4.15.
For VTEDLRLKDWEHSIALRNISQAKG [L21Q] the value was 3.65.
Regarding VTEDLRLKDWEHSIALRNISWAKG [L21W], the protein stability index worked out at 3.08.
VTEDLRLKDWEHSIALRNISEAKG [L21E]: the protein stability index turned out to be 4.4.
Take VTEDLRLKDWEHSIALRNISIAKG [L21I]: the protein stability index was found to be 3.19.
Take VTEDLRLKDWEHSIALRNISYAKG [L21Y]: the protein stability index is 3.48.
For VTEDLRLKDWEHSIALRNISFAKG [L21F] the value was 3.48; for VTEDLRLKDWEHSIALRNISKAKG [L21K], 4.37.
